The labels stand for the following.
T1: KRAS G13D (G13D-RT6) peptide on HLA-DQA1*05:01 / HLA-DQB1*03:01 (human)
T1 chain: YKLVVVGAGDVGKSAL

B1: B8.2.4 TCR mutant β95Q-A (protein)
chain 1: AQKITQTQPGMFVQEKEAVTLDCTYDTSDPSYGLFWYKQPSSGEMIFLIYQGSYDQQNATEGRYSLNFQKARKSANLVISASQLGDSAMYFCAMRERTGTASKLTFGTGTRLQVTL
chain 2: DVKVTQSSRYLVKRTGEKVFLECVQDMDHENMFWYRQDPGLGLRLIYFSYDVKMKEKGDIPEGYSVSREKKERFSLILESASTNQTSMYLCASSATVPPQHFGDGTRLSIL
B2: B8.2.4 TCR mutant β97V-I (protein)
chain 1: B1 chain 1
chain 2: B1 chain 2 with A95Q, V97I
B3: B8.2.4 TCR mutant β95Q-C (protein)
chain 1: B1 chain 1
chain 2: B1 chain 2 with A95C
B4: B8.2.4 TCR mutant β95Q-M (protein)
chain 1: B1 chain 1
chain 2: B1 chain 2 with A95M
B5: B8.2.4 TCR mutant β97V-T (protein)
chain 1: B1 chain 1
chain 2: B1 chain 2 with A95Q, V97T
B6: B8.2.4 TCR mutant β98P-V (protein)
chain 1: B1 chain 1
chain 2: B1 chain 2 with A95Q, P98V
B7: B8.2.4 TCR mutant β95Q-D (protein)
chain 1: B1 chain 1
chain 2: B1 chain 2 with A95D
B8: B8.2.4 TCR mutant β98P-M (protein)
chain 1: B1 chain 1
chain 2: B1 chain 2 with A95Q, P98M
B9: B8.2.4 TCR mutant β98P-W (protein)
chain 1: B1 chain 1
chain 2: B1 chain 2 with A95Q, P98W
B10: B8.2.4 TCR mutant β98P-S (protein)
chain 1: B1 chain 1
chain 2: B1 chain 2 with A95Q, P98S
B11: B8.2.4 TCR mutant β95Q-W (protein)
chain 1: B1 chain 1
chain 2: B1 chain 2 with A95W
B12: B8.2.4 TCR mutant β98P-C (protein)
chain 1: B1 chain 1
chain 2: B1 chain 2 with A95Q, P98C
B13: B8.2.4 TCR mutant β98P-D (protein)
chain 1: B1 chain 1
chain 2: B1 chain 2 with A95Q, P98D
B14: B8.2.4 TCR mutant β98P-G (protein)
chain 1: B1 chain 1
chain 2: B1 chain 2 with A95Q, P98G
B15: B8.2.4 TCR mutant β95Q-I (protein)
chain 1: B1 chain 1
chain 2: B1 chain 2 with A95I
B16: B8.2.4 TCR mutant β95Q-G (protein)
chain 1: B1 chain 1
chain 2: B1 chain 2 with A95G
B17: B8.2.4 TCR mutant β98P-R (protein)
chain 1: B1 chain 1
chain 2: B1 chain 2 with A95Q, P98R
B18: B8.2.4 TCR mutant β98P-H (protein)
chain 1: B1 chain 1
chain 2: B1 chain 2 with A95Q, P98H
B19: B8.2.4 TCR mutant β95Q-Y (protein)
chain 1: B1 chain 1
chain 2: B1 chain 2 with A95Y
B20: B8.2.4 TCR mutant β95Q-V (protein)
chain 1: B1 chain 1
chain 2: B1 chain 2 with A95V
B21: B8.2.4 TCR mutant β98P-L (protein)
chain 1: B1 chain 1
chain 2: B1 chain 2 with A95Q, P98L
B22: B8.2.4 TCR mutant β95Q-T (protein)
chain 1: B1 chain 1
chain 2: B1 chain 2 with A95T
B23: B8.2.4 TCR mutant β95Q-E (protein)
chain 1: B1 chain 1
chain 2: B1 chain 2 with A95E
B24: B8.2.4 TCR mutant β97V-S (protein)
chain 1: B1 chain 1
chain 2: B1 chain 2 with A95Q, V97S
B25: B8.2.4 TCR mutant β95Q-H (protein)
chain 1: B1 chain 1
chain 2: B1 chain 2 with A95H
B26: B8.2.4 TCR mutant β98P-F (protein)
chain 1: B1 chain 1
chain 2: B1 chain 2 with A95Q, P98F
B27: B8.2.4 TCR mutant β95Q-N (protein)
chain 1: B1 chain 1
chain 2: B1 chain 2 with A95N

Changes are numbered by the printed parent chain.

For the assay, the target named is T1, KRAS G13D (G13D-RT6) peptide on …. Description: NFAT-luciferase; Jurkat-NFAT-Luc with the TCR and Lovo-DPA0301:DPB0501 cells loaded with G13D-RT6; against wild-type B8.2.4 TCR; full-length, on cells. The following applies: chains Valpha:Vbeta.
B1 came in with a TCR Mut RLU/WT RLU of 0.86.

As to B2, the TCR Mut RLU/WT RLU came to 0.61.

With B3, the TCR Mut RLU/WT RLU was 1.14.

For B4, the TCR Mut RLU/WT RLU stood at 0.99.

B5 yielded a TCR Mut RLU/WT RLU of 0.98.

Molecule B6 came in with a TCR Mut RLU/WT RLU of 0.63.

As for B7, the TCR Mut RLU/WT RLU worked out at 0.6.

In turn, B8 came in with a TCR Mut RLU/WT RLU of 0.83.

As for B9, the TCR Mut RLU/WT RLU was 0.81.

Take B10: the TCR Mut RLU/WT RLU was 0.94.

The molecule B11 gave a TCR Mut RLU/WT RLU of 0.88.

With B12, the TCR Mut RLU/WT RLU came to 1.11.

In the case of B13, the TCR Mut RLU/WT RLU was found to be 0.8.

For the molecule B14, the TCR Mut RLU/WT RLU came out at 0.73.

The molecule B15 came in with a TCR Mut RLU/WT RLU of 0.74.

For B16, the TCR Mut RLU/WT RLU was 1.03.

In the case of B17, the TCR Mut RLU/WT RLU was 0.73.

B18 showed a TCR Mut RLU/WT RLU of 0.6.

B19 registered a TCR Mut RLU/WT RLU of 0.92.

For B20, the TCR Mut RLU/WT RLU is 0.76.

B21 had a TCR Mut RLU/WT RLU of 0.67.

B22 displayed a TCR Mut RLU/WT RLU of 0.59.

In turn, B23 gave a TCR Mut RLU/WT RLU of 0.81.

Take B24: the TCR Mut RLU/WT RLU was found to be 0.78.

On to B25, for which the TCR Mut RLU/WT RLU came out at 0.68.

The molecule B26 returned a TCR Mut RLU/WT RLU of 0.96.

For B27, the TCR Mut RLU/WT RLU is 0.6.

Values taken from patent publication US20240123070A1, “EPITOPE PEPTIDE OF RAS G13D MUTANT AND T CELL RECEPTOR RECOGNIZING RAS G13D MUTANT” (SHANGHAI GENBASE BIOTECHNOLOGY CO., LTD., priority 2021, published 2024).
